Here are results for 1 molecule from patent US20230235059A1 (SORRENTO THERAPEUTICS, published 2023).

Experiment [1] addresses PD-1 in the Promega PD1/PD-L1 blockade reporter bioassay (Cat. No. J1250) (human, UniProt Q15116 25-288). As to the kind of experiment: cell-based or functional assay.
Experiment [2] addresses T1, Recombinant mouse PD-1-His (Sino Biological catalog #50124-M08H) (mouse, UniProt Q02242 25-167).
T1 construct: Bought protein; also called mouse PD-1 antigen; not shown: His tag
T1 sequence: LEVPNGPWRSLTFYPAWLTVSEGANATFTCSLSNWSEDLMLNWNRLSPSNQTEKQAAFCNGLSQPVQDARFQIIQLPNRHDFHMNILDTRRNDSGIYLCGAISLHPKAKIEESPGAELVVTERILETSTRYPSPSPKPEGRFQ
As to the kind of experiment: SPR (BIACORE), antibody captured on anti-human Fc, PD-1-His as analyte. Here is the method: (§1) Binding kinetics of anti-PD1 antibodies with PD-1 proteins from different species was measured using surface plasmon resonance (SPR). […] The PD-1 proteins from human (catalog #10377-H08H-B), cynomolgus monkey (catalog #90311-C08H), rhesus monkey (catalog #90305-K08H), and mouse (catalog #50124-M08H) were obtained from Sino Biological. Anti-human fragment crystallizable region (Fc region) antibody was immobilized on a CMS sensor chip to approximately 8,000 RU using standard N-hydroxysuccinimide/N-Ethyl-N′-(3-dimethylaminopropyl) carbodiimide hydrochloride (NHS/EDC) coupling methodology. […] Recombinant human, cyno, rhesus and mouse PD-1-His were serially diluted in a running buffer of 0.01 M HEPES pH 7.4, 0.15 M NaCl, 3 mM EDTA, 0.05% v/v Surfactant P20 (HBS-EP+). All measurements were conducted in HBS-EP+ buffer with a flow rate of 30 μL/minute. A 1:1 (Langmuir) binding model was used to fit the data. All BIACORE assays were performed at room temperature.
(In general: In SPR one partner is held on a chip, and binding of the other changes the refractive index at the surface.)

Experiment [3] concerns the target T2, Recombinant rhesus monkey PD-1-His (Sino Biological catalog #90305-K08H) (rhesus monkey).
T2 construct: Bought protein; also called rhesus PD-1-His; rhesus monkey PD-1 antigen; not shown: His tag
T2 chain: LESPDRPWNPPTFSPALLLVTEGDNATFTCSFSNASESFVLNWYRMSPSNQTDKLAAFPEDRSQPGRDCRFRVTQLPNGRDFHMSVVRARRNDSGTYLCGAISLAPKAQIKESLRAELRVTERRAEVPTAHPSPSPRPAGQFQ
The description is as above. As to the method: as §1

Experiment [4] concerns the target T3, Recombinant cynomolgus monkey PD-1-His (Sino Biological catalog #90311-C08H) (cynomolgus monkey, UniProt Q15116 25-167 (human entry)).
T3 construct: Bought protein; also called cyno PD-1-His; cynomolgus monkey PD-1 antigen; not shown: His tag
T3 chain: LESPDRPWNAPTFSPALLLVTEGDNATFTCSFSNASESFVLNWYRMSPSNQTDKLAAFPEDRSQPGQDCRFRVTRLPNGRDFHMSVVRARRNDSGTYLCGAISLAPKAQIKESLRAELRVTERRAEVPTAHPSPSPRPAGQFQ
The description is as above. Here is the method:
as §1

Sequence of PD-1 in the Promega PD1/PD-L1 blockade reporter bioassay (Cat. No. J1250) (Q15116 25-288 limits assumed): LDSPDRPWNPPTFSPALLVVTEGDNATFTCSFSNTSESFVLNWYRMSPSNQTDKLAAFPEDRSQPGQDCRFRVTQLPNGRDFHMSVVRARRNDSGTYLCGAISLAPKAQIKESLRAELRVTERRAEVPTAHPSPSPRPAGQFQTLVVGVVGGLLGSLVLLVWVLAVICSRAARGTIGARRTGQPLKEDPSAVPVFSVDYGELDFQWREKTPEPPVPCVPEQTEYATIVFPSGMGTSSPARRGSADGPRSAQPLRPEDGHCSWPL

B1: HPD-BB9 (antibody, V domains shown)
VH: QVQLVQSGAEVKKPGASVKVSCKASGFRLTTNGISWVRQAPGQGLEWMGWISAGGGPTNYAQKLQGRVTMTTDTSTSTAYMELRSLRSDDTAVYYCAKGLYGTKDAWGQGTLVTVSS
VL: QSVLTQPPSVSEVPGQRVTISCSGGGSNIGSNAVNWYQHFPGKAPKLLIYYNDLLPSGVSDRFSASKSGTSASLAISGLRSEDEADYYCAAWDDNLSAYVFATGTKVTVL
notes: also called HDP-BB9; anti-PD1 clone HPD-BB9
In the case of B1, the “EC50 of fold induction of Relative Light Units (RLU), PD1/PD-L1 blockade reporter bioassay” value in experiment [1] came out at 0.493 µg/mL. Moreover, the binding result in experiment [2], in experiment [3] and in experiment [4] was “binds” each time.
